Reference: article PMC10336103, “ResR/McdR-regulated protein translation machinery contributes to drug resilience in Mycobacterium tuberculosis” (Communications Biology, 2023)

What was measured:
Assay in all cases: EMSA
[1] = test system: ResR/McdR17-225 (Mycobacterium tuberculosis Erdman)
[2] = test system: ResR/McdRMS (Mycobacterium smegmatis)
[3] = test system: ResR/McdR (ResR1-225) (Mycobacterium tuberculosis Erdman)

Row | Substance | Kd [1] | Kd [2] | Kd [3]
1 | PrplN_FL | 1170 nM | 1400 nM | 780 nM
2 | PwhiB2_FL |  |  | 330 nM
